According to PMC6220269, “Dynamic ubiquitylation of Sox2 regulates proteostasis and governs neural progenitor cell differentiation” (Nature Communications, 2018):

Target: T1, His-Sox2 (human, UniProt P48431 1-317)
T1 construct: Sox2, human, cloned into pGEX-6p-1 or pET-28a (+) for the GST pull-down; source: E. coli BL21, purified
Assay: pull-down; GST-tagged protein on glutathione-Sepharose 4B beads incubated with His-tagged protein for 24 h at 4 °C; washed four times with 100 mM NaCl, 10 mM Tris, 50 mM NaF, 2 mM EDTA, 0.5 mM Na3VO4, 1% Nonidet P40; western blot
Details: both partners purified

T1 sequence (P48431 whole entry): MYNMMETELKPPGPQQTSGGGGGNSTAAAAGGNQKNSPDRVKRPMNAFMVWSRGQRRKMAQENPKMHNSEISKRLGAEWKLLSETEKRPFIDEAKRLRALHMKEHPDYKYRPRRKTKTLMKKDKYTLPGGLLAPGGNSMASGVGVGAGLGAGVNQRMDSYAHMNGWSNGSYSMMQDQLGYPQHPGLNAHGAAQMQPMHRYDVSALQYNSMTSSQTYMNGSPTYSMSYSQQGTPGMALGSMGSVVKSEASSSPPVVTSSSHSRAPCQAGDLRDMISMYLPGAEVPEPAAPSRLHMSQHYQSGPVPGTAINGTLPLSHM

binding result: binds
B1: GST-OTUD7B-ZF (811–843) (domain or fragment, human, UniProt Q6GQQ9 811-843, looked up)
chain: GHPETNNFCSCCYREELRRREREPDGELLVHRF
notes: OTUD7B, human, C-terminal zinc finger (ZF) domain, residues 811-843; also called OTUD7B ZF domain; source: E. coli BL21, purified
